Reference: PMC11480844

B1: H2-Kb / B14 (parent)
chain 1: GEQVEQRPPHLSVREGDSAVIICTYTDPNSYYFFWYKQEPGAGLQLLMKVFSSTEINEGQGFTVLLNKKDKQLSLNLTAAHPGDSAVYFCAVSARGNMGYKLTFGTGTSLLVDP
chain 2: GGIITQTPKFLIGQEGQKLTLKCQQNFNHDTMYWYRQDSGKGLRLIYYSITENDLQKGDLSEGYDASREKKSSFSLTVTSAQKNEMAVFLCASSMGQGASDYTFGSGTRLLVI
chain 3: not shown
chain 4: IQKTPQIQVYSRHPPENGKPNILNCYVTQFHPPHIEIQMLKNGKKIPKVEMSDMSFSKDWSFYILAHTEFTPTETDTYACRVKHDSMAEPKTVYWDRDM
chain 5: SIINFEKL
B2: H2-Kb / B3 (parent)
chain 1: GQQVKQSSPSLTVQEGGISILNCDYENDMFDYFAWYKKYPDNSPTLLISVRSNVDKREDGRLTVFLNKSGKHFSLHITASQPEDTAVYLCAAGNTGYQNFYFGKGTSLTVIP
chain 2: DSGVVQSPRHIIKEKGGRSVLTCIPISGHSNVVWYQQTLGKELKFLIQHYEKVERDKGFLPSRFSVQQFDDYHSEMNMSALELEDSAMYFCASSSLQGARNQAPLFGEGTRLSVL
chain 3: not shown
chain 4: B1 chain 4
chain 5: SIINFEKL
B3: H2-Kb / B2 (parent)
chain 1: GEQVEQRPPHLSVREGDSAVIICTYTDPNSYYFFWYKQEPGAGLQLLMKVFSSTEINEGQGFTVLLNKKDKQLSLNLTAAHPGDSAVYFCAVSQMSNYNVLYFGSGTKLTVEP
chain 2: EAAVTQSPRNKVAVTGGKVTLSCNQTNNHNNMYWYRQDTGHGLRLIHYSYGAGSTEKGDIPDGYKASRPSQENFSLILELATPSQTSVYFCASGTGGSGQLYFGEGSKLTVL
chain 3: not shown
chain 4: B1 chain 4
chain 5: SIINFEKL

Variants of: B1
Experiment: % of reporter cells activated (NFAT-GFP), raw
Settings: with B14; scale: % of reporter cells activated
Note: test concentration or dose not given here.

Ratio to parent, by site and new letter:
chain 5 E6: K 0.707 | A 0.418 | F 1.47 | S 0.751 | W 1.2 | V 1.69 | C 1.16 | Q 0.876 | H 0.853 | Y 0.853 | M 0.822 | P 0.867 | D 0.618 | L 0.622 | R 0.373 | I 0.729 | G 1.08 | N 1.07 | T 1.41
chain 5 I2: H 0.667 | K 1.04 | E 0.964 | F 0.849 | V 0.52 | Y 0.88 | G 0.907 | R 1.87 | N 1 | P 2.36 | M 1.4 | Q 1.07 | C 0.933 | A 0.778 | T 1.16 | W 0.933 | L 1.73 | S 1.08 | D 1.47
chain 5 S1: K 0.564 | R 2.04 | W 1.04 | H 1.24 | E 0.867 | Y 1.33 | L 1.13 | A 0.942 | C 1.42 | N 0.231 | T 1.42 | V 8.49 | P 0.751 | M 0.444 | I 0.76 | Q 0.858 | F 3.07 | D 1.38 | G 0.596
chain 5 K7: V 1.11 | E 0.622 | C 4.53 | A 0.907 | T 1.73 | F 1.42 | W 1.26 | Y 1.69 | G 0.489 | H 0.796 | N 0.707 | S 1.09 | M 0.787 | R 0.667 | Q 1.23 | I 0.96 | D 0.791 | L 1.56 | P 1.64
chain 5 I3: M 0.84 | G 1.38 | N 0.978 | E 1.28 | A 1.33 | D 1.46 | F 1 | L 1.33 | P 2 | V 1.6 | Q 1.69 | S 1.6 | R 0.858 | W 1.11 | K 1.34 | Y 1.28 | C 1.96 | T 1.47 | H 1.78
chain 5 F5: N 1.1 | G 1.07 | R 1.33 | D 1.32 | S 1.56 | M 0.893 | H 0.96 | Y 0.578 | C 1.96 | K 0.636 | P 0.791 | W 0.724 | L 1.11 | V 1.17 | T 0.609 | Q 0.582 | I 0.831 | A 1.33 | E 1.08
chain 5 N4: Q 1.07 | H 0.911 | T 1.64 | P 1.38 | V 1.42 | W 1.01 | I 0.484 | M 0.498 | Y 0.658 | L 0.822 | A 1.32 | E 1.33 | K 1.37 | D 1.23 | S 1.1 | R 1.32 | F 1.51 | G 0.644 | C 0.916
chain 5 L8: A 0.609 | I 1.51 | M 0.773 | R 0.978 | S 0.716 | E 0.516 | D 1.24 | F 0.44 | T 1.38 | C 1.41 | Y 1.07 | H 2.84 | Q 1.24 | W 1.11 | P 1.33 | G 1.38 | N 1.16 | K 1.24 | V 0

Variants of: B2
Experiment: % of reporter cells activated (NFAT-GFP), raw
Settings: with B3; scale: % of reporter cells activated

Ratio to parent of substitutions, site by site:
chain 5 S1: W 0.138 | G 0.192 | P 0.303 | M 0.195 | N 0.0477 | R 0.101 | Q 0.266 | I 0.207 | L 0.118 | V 0.34 | D 0.229 | H 0.259 | T 0.194 | K 0.356 | A 0.221 | Y 0.576
chain 5 F5: D 0.272 | C 0.411 | L 0.842 | T 0.842 | E 0.207 | H 0.428 | I 0.467 | W 0.399 | Q 0.343 | K 0.121 | P 0.228 | G 0.197 | R 0.0406 | M 0.771 | A 0.437 | V 0.38 | S 0.263
chain 5 I2: P 0.386 | L 1.35 | A 1.67 | V 1.39 | M 0.465 | C 1.29 | F 0.945 | R 0.777 | G 1.01 | T 2.16 | Y 0.308 | N 0.605 | D 1.57 | S 1.73 | E 0.706 | H 0.323 | K 0.551
chain 5 E6: N 0.831 | L 0.766 | F 2.13 | R 0.469 | P 1.43 | T 1.87 | Q 0.961 | I 0.819 | M 0.793 | G 1.37 | H 0.651 | V 2.28 | C 2.48 | K 0.587 | A 2.48 | W 2.6 | D 1.39
chain 5 K7: N 0.601 | E 0.175 | C 0.201 | Y 0.313 | L 0.488 | H 0.553 | A 0.18 | F 0.28 | W 0.634 | S 0.219 | I 0.37 | V 0.215 | R 0.199 | P 0.263 | Q 0.201 | G 0.0497 | D 0.0872
chain 5 L8: Q 0.258 | I 0.902 | R 0.837 | E 0.448 | C 0.526 | D 0.434 | H 0.547 | P 0.463 | W 0.462 | S 0.287 | K 0.331 | G 0.264 | F 0.341 | M 0.809 | T 0.7 | N 0.885 | Y 0.619
chain 5 I3: S 1.32 | A 0.585 | T 0.509 | P 1.7 | Q 0.614 | V 0.59 | H 0.787 | F 0.216 | N 0.35 | L 1.21 | C 0.787 | K 0.322 | M 1.73 | R 0.0152 | Y 0.153
chain 5 N4: Y 0.0862 | I 0.183 | A 0.143 | T 0.137 | C 0.164 | R 0.181 | K 0.189 | Q 0.0254 | H 0.293 | V 0.132 | F 0.255 | M 0.133 | D 0.118 | S 0.222 | L 0.204 | G 0.158 | W 0.176 | P 0.196 | E 0.188

Variants of: B3
Experiment: % of reporter cells activated (NFAT-GFP), raw
Settings: with B2; scale: % of reporter cells activated

Ratio to parent, by site and new letter:
chain 5 N4: A 0.432 | C 0.162 | Q 0.259 | P 0.503 | I 0.557 | L 0.503 | R 0.324 | H 0.584 | S 0.422 | V 0.281 | M 0.535 | E 0.416 | W 0.449 | D 0.541 | G 0.335 | F 0.557 | K 0.362 | Y 0.481 | T 0.373
chain 5 L8: W 2.09 | Q 2.52 | Y 1.03 | P 3.65 | V 0.211 | R 0.773 | S 1.08 | T 1.29 | N 0.897
chain 5 S1: M 5.85 | K 2.57 | E 0.768 | Q 1.77 | P 6.59 | W 8.98 | H 1.74 | R 5.53 | T 1.02 | I 10.3 | N 0.465 | Y 6.51 | C 0.773 | V 8.24 | F 4.16 | A 3.1 | L 7.3 | D 2.9 | G 4.72
